The values that follow come from PMC8978939, “VHL-P138R and VHL-L163R Novel Variants: Mechanisms of VHL Pathogenicity Involving HIF-Dependent and HIF-Independent Actions” (Frontiers in Endocrinology, 2022).

One assay deals with T1, VHL-P138R-Venus (human, UniProt P40337 1-213, P138R).
T1 construct: von Hippel-Lindau protein (pVHL), human, patient variant P138R (CCA to CGA) made by site-directed mutagenesis of VHL-WT-Venus-Retro; Variant found in patients with VHL disease (type 2B); also called P138R VHL-Venus; P138R pVHL
T1 sequence (P40337 whole entry P138R): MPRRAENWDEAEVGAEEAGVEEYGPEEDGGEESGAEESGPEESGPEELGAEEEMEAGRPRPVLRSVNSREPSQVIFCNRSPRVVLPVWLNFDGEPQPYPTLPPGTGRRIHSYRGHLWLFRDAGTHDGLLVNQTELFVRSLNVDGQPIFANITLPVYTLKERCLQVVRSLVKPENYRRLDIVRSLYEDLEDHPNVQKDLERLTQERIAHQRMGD
The experiment in a line: co-IP; GFP-Trap_A kit on 1 mg protein from 786-0 cell lines stably expressing VHL-Venus (WT, P138R, L163R) or GFP; Western blot for Elongin B and Elongin C; band ratios Elongin/pVHL normalised to WT set as 1. The conditions noted are these: partners not purified.

The target in a further assay is T2, VHL-L163R-Venus (human, UniProt P40337 1-213, L163R).
T2 construct: von Hippel-Lindau protein (pVHL), human, patient variant L163R (CTC to CGC) made by site-directed mutagenesis of VHL-WT-Venus-Retro; Variant found in patients with VHL disease (type 2C); also called L163R VHL-Venus; L163R pVHL
T2 sequence (P40337 whole entry L163R): as the sequence (P40337 whole entry P138R) above, with R138P, L163R counted along it
The assay is described as above. The conditions noted are these: partners not purified.

B1: Elongin B (natural protein, human (endogenous in 786-0), UniProt Q15370 1-118, looked up)
chain: MDVFLMIRRHKTTIFTDAKESSTVFELKRIVEGILKRPPDEQRLYKDDQLLDDGKTLGECGFTSQTARPQAPATVGLAFRADDTFEALCIEPFSSPPELPDVMKPQDSGSSANEQAVQ
notes: also called EloB; source: endogenous, 786-0 RCC cell lysate
With B1, the “ratio Elongin B/pVHL, normalised to WT pVHL set as 1” value with VHL-P138R-Venus was about 0.6; with VHL-L163R-Venus, 0.25.
